System: medial meniscal tear in the right knee joint
Type: in vivo, Male Lewis rats
Method: After the sacrifice, the right knee was removed and decalcified in 5% formic acid for 4-6 d before cutting in half in the frontal plane and embedding in paraffin wax. Three sections were cut in 200 μm steps, stained with toluidine blue, and analyzed using ImagePro Plus™ software (Media Cybernetics). In scoring the three sections of the joint, the worst-case scenario for the two halves on each slide was determined for the cartilage lesion as the cartilage degeneration width (μm). This reflects the areas of tibial cartilage lesion in which both chondrocyte and proteoglycan loss extend 50% of the cartilage thickness. The measurement was taken over the area of greatest lesion severity in each of the three zones across the tibial surface.
A treatment group Mean±SE for each score and measurement was determined.
Data was analyzed using a one-way analysis of variance (1-way ANOVA) or Kruskal-Wallis test (non-parametric), along with an appropriate multiple comparison post-test. Right knee caliper measurements were compared to left using a Student's t-test. Unless indicated, Bolder BioPATH, Inc. performs statistical analysis on raw (untransformed) data only. […] Significance for all tests was set at p≦0.05. Comparisons were made between each group and the vehicle control group, as well as between pairs
Male Lewis rats underwent surgery (under anesthesia with Isoflurane) to induce a medial meniscal tear in the right knee joint. Animals were dosed IA with vehicle or FGF-18 on one of two different regimens (see table below), then terminated on day 105. Knees had caliper measurements taken at baseline and days 21, 42, 56, 84, and 105. Serum was evaluated for α2 macroglobulin levels at baseline and on days 21, and 105, as well as one week after the final dose (day 42 or 84). Right knees were collected for histopathology evaluation.

B1: trFGF-18: recombinant truncated form of human FGF-18 (170 amino acids, SEQ ID NO: 2), produced in E. coli (protein)
chain: MEENVDFRIHVENQTRARDDVSRKQLRLYQLYSRTSGKHIQVLGRRISARGEDGDKYAQLLVETDTFGSQVRIKGKETEFYLCMNRKGKLVGKPDGTSKECVFIEKVLENNYTALMSAKYSGWYVGFTKKGRPRKGPKTRENQQDVHFMKRYPKGQPELQKPFKYTTVTK
modifications: Recombinant truncated FGF-18(trFGF-18)
10 μg IA, day 105
  extent of injury over the tibial surface (collagen damage), histopathology: generally increased
  severity of tibial injury, histopathology: reducing its severity
Monthly injection scheme versus other regimens, 10 μg IA
  structural benefit (total joint score, substantial tibial cartilage degeneration width): highest
Three injections once monthly (Group 5; days 21, 49, 77)
  overall morphology: best overall morphology
